Assay [1] addresses BHRF1ΔC31 (Epstein-Barr virus) (UniProt P03182). Put plainly: ITC; VP-ITC (MicroCal), recombinant BHRF1ΔC31 with BH3 domain peptides; Kd values are the means of 3 experiments ± SD. A general note: ITC needs no label: the signal is the heat of the interaction.
Assay [2] has as its target T1, BHRF1 (recombinant; BHRF1ΔC31) (Epstein-barr virus strain ag876, UniProt P0C6Z1).
T1 construct: C-terminally truncated (last 31 residues removed, ΔC31), His-tagged, E. coli BL21(DE3) pLysS; the ABT-737 sentence says only 'recombinant BHRF1'
Put plainly: biosensor assay. The class given is binding.

Assay [3] addresses T2, BHRF1ΔC31 (Epstein-Barr virus, UniProt P03182).
T2 construct: Epstein-Barr virus BHRF1 (viral Bcl-2 homolog) lacking the C-terminal 31 residues (ΔC31); electron density seen for residues 2-158 in the Bim complex; Cloned into pET DUET with BamHI and EcoRI; also called recombinant C-terminally truncated form of BHRF1; recombinant BHRF1; source: E. coli BL21 DE3 pLysS, purified (nickel Hi-Trap chelating column, Superdex 200 gel filtration)
T2 sequence: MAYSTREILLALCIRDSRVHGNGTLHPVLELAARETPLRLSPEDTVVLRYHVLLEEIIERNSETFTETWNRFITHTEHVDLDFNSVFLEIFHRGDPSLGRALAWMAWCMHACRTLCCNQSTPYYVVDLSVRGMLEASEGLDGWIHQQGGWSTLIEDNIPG
As to the kind of experiment: ITC; VP-ITC (MicroCal), recombinant BHRF1ΔC31 with BH3 domain peptides; Kd values are the means of 3 experiments ± SD. Particulars: both partners purified.

Assay [4] addresses T3, BHRF1ΔC31 (Epstein-Barr virus, UniProt P03182).
T3 chain: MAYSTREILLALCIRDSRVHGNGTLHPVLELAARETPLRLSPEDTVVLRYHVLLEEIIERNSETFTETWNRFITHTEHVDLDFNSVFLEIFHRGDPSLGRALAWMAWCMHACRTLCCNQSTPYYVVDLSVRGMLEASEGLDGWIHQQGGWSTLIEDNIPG
As to the kind of experiment: ITC.

As to human Puma BH3 26-mer peptide, in assay [1], the equilibrium dissociation constant (Kd) – broadly, a measure of binding affinity in units of concentration – was 70 nM.

As for `CN(C)CC[C@H](CSc1ccccc1)Nc1ccc(S(=O)(=O)NC(=O)c2ccc(N3CCN(Cc4ccccc4-c4ccc(Cl)cc4)CC3)cc2)cc1[N+](=O)[O-]` [ABT-737], the IC50 (in general, the midpoint of a concentration-inhibition curve) in assay [2] was above 20000 nM.

On to human Bak BH3 26-mer peptide, for which the dissociation constant (Kd) in assay [1] turned out to be 150 nM.

On to human Bim BH3 26-mer peptide, for which the Kd in assay [1] amounted to 18 nM.

B1: human Bid BH3 34-mer peptide (peptide)
chain: SESQEDIIRNIARHLAQVGDSMDRSIPPGLVNGL
For B1, the Kd with BHRF1ΔC31 [3] is 110 nM.

B2: human Bax BH3 28-mer peptide (peptide)
chain: PQDASTKKLSECLKRIGDELDSNMELQR
B2: the Kd with BHRF1ΔC31 [4] was 1400 nM; in the assay with BHRF1ΔC31 [3] it was above 1000 nM.

For the origin of these results see PMC3009601, “Structural Basis for Apoptosis Inhibition by Epstein-Barr Virus BHRF1” (PLoS Pathogens, 2010).
